Experimental findings from publication PMC8054479 (Nature, 2020) are described below.

This experiment concerns the target T1, SMCR8 (Smith-Magenis syndrome chromosome region, candidate 8) (human, UniProt Q8TEV9 1-937).
T1 sequence: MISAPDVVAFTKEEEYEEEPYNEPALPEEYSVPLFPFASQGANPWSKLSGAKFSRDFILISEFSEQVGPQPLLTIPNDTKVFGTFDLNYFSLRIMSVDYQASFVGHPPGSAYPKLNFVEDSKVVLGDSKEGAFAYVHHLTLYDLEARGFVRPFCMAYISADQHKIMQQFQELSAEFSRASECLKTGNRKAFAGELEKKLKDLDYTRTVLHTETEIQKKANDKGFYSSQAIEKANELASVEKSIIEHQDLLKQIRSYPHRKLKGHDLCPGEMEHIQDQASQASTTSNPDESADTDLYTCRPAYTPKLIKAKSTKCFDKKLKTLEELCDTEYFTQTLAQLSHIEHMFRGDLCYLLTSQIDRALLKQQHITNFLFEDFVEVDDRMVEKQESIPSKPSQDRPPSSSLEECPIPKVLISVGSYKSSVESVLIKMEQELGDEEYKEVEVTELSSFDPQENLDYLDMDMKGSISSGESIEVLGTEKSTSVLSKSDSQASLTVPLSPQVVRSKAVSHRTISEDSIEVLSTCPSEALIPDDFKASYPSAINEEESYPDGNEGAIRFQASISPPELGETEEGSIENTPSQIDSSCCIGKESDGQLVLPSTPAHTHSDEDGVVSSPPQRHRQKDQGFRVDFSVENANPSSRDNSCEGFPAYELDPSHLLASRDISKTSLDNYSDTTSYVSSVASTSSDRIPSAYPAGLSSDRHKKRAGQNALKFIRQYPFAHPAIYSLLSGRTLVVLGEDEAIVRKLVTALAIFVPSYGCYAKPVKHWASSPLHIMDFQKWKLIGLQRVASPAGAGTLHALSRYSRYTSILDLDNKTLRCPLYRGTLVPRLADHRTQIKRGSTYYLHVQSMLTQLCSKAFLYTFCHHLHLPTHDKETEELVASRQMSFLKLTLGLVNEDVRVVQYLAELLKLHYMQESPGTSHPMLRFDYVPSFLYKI
Put plainly: cryo-EM structure.

B1: WDR41 (WD repeat protein 41) (natural protein)
chain: MLRWLIGGGREPQGLAEKSPLQTIGEEQTQNPYTELLVLKAHHDIVRFLVQLDDYRFASAGDDGIVVVWNAQTGEKLLELNGHTQKITAIITFPSLESCEEKNQLILTASADRTVIVWDGDTTRQVQRISCFQSTVKCLTVLQRLDVWLSGGNDLCVWNRKLDLLCKTSHLSDTGISALVEIPKNCVVAAVGKELIIFRLVAPTEGSLEWDILEVKRLLDHQDNILSLINVNDLSFVTGSHVGELIIWDALDWTMQAYERNFWDPSPQLDTQQEIKLCQKSNDISIHHFTCDEENVFAAVGRGLYVYSLQMKRVIACQKTAHDSNVLHVARLPNRQLISCSEDGSVRIWELREKQQLAAEPVPTGFFNMWGFGRVSKQASQPVKKQQENATSCSLELIGDLIGHSSSVEMFLYFEDHGLVTCSADHLIILWKNGERESGLRSLRLFQKLEENGDLYLAV
B1: the binding result was “binds”.

B2: C9orf72 (natural protein)
chain: MSTLCPPPSPAVAKTEIALSGKSPLLAATFAYWDNILGPRVRHIWAPKTEQVLLSDGEITFLANHTLNGEILRNAESGAIDVKFFVLSEKGVIIVSLIFDGNWNGDRSTYGLSIILPQTELSFYLPLHRVCVDRLTHIIRKGRIWMHKERQENVQKIILEGTERMEDQGQSIIPMLTGEVIPVMELLSSMKSHSVPEEIDIADTVLNDDDIGDSCHEGFLLNAISSHLQTCGCSVVVGSSAEKVNKIVRTLCLFLTPAERKCSRLCEAESSFKYESGLFVQGLLKDSTGSFVLPFRQVMYAPYPTTHIDVDVNTVKQMPPCHEHIYNQRRYMRSELTAFWRATSEEDMAQDTIIYTDESFTPDLNIFQDVLHRDTLVKAFLDQVFQLKPGLSLRSTFLAQFLLVLHRKALTLIKYIEDDTQKGKKPFKSLRNLKIDLDLTAEGDLNIIMALAEKIKPGLHSFIFGRPFYTSVQERDVLMTF
As for B2, the binding result is given as “binds”.
